The target of this assay is Na+,K+-ATPase α-subunit (endogenous, MDCK cells) (dog (endogenous in MDCK)) (UniProt P50997). The experiment in a line: co-IP.

With “AS160 (endogenous, MDCK cells) (natural protein)”, the fold increase of co-precipitated AS160 with 40 uM Compound C against vehicle is 7 fold.

The record behind these values is PMC3002392.
